Measurements as given in the DeepSol protein solubility set.

Test: soluble on expression in E. coli; label from the status in PepcDB or PDB records

Row | Sequence | soluble on expression in E. coli
1 | MINSKKELRKNMVLKRDSLEPDLKSIKDNMIYNKVINSIQYKSANNIFVFVSYKSEVDTHNIIRTAIADGKKVFVPKVISKEKGMEAAEIRGFFDLEKSAYGILEPKSSNYIEPESIELLLVPGLAFDESGGRIGYGGGFYDRYMSLLDKSAVKVGICYDFQVIDKVIMNINDVPVDKIIVGLEHHHHHH | not soluble
2 | MSLIKPDHPRLSILRQCALVSLSRSSFYYQEKGESPLNLKLMELIDRQFMETPFYGARQMARHLRNHEGYCVGRKKICRLMAKMGLVPIYQRPRTTKPHPEHVKYPYLLRDLVIDKPNQVWCTDITYIPMRRGFLYLVAIMDWHSRCVLSWRLSNTMEADFCVEALEEALNKFGKPEIFNTDQGSQFTSQSFTETLKEADIKISMDGKGAWTDNVFIERLWRSLKYECVYLHAFETGSKAHHGIGHWIQFYNERRPHSSLGGLSPNSVYETELWSEAAEGHHHHHH | not soluble
3 | MGSDKIHHHHHHMLRKSLILVLTGALTGLFSSISQGAETLSVATDAIAADFYPATQAGPQYGVLVLGGAEGGKPESLAKAIAHEGHPVLSLAYFNDKGLPQELEQIPLEYFAKAKVWLLNQANVRQDGLILVGWSKGAELSLLLASQDPLFSKVVAIAPSSVIWAGFLKDWTKTPSSSWTQGGKALDFVPFRPTGEVKGLLDLYSQSLQNAKAGQGRIPVENIKGDVVLLTGSNDEIWPSNLMAKALCQRMDTAGTQGSCTHINFEGLDHLLGEKFLDSNDAMHKQFMGFLEAE | not soluble
4 | MNIMLTGATGHLGTHITNQAIANHIDHFHIGVRNVEKVPDDWRGKVSVRQLDYFNQESMVEAFKGMDTVVFIPSIIHPSFKRIPEVENLVYAAKQSGVAHIIFIGYYADQHNNPFHMSPYFGYASRLLSTSGIDYTYVRMAMYMDPLKPYLPELMNMHKLIYPAGDGRINYITRNDIARGVIAIIKNPDTWGKRYLLSGYSYDMKELAAILSEASGTEIKYEPVSLETFAEMYDEPKGFGALLASMYHAGARGLLDQESNDFKQLVNDQPQTLQSFLQENILEHHHHHH | soluble
5 | MAHHHHHHKNTAKTAPNHDRIKNLIAKLNNSKDEDKKKNSPNGQINRTGDVYAKNELINKKKKHINFETFLRIFLETYEEPLSVDELITSFEFFDKEKSGYLDEEKVRFILKNSEERLADEDMKLFLNSLNLRDKDKIDYVMLAKRLKNVA | soluble
6 | MPQGSALSDTERAQLDVMKLLNVSLHEMSRKISRSRHCIRVYLKDPVSYGTSKRAPRRKALSVRDERNVIRAASNSCKTARDIRNELQLSASKRTILNVIKRSGVIVRQKLRPAPLLSADHKLKRLEFAKNNMGTNWSKVVFSDEKKFNLDGPDGCRYYWRDLRKEPMVFSRRNFGGGTVMVWGAFTEKKKLEIQFVSSKMNSTDYQNVLELELSKYLRHYSGKDFRFQQDNATIHVSNSTRDYFKLKKINLLDWPARSPDLNPIENLWGILVRIVYAQNKTYPTVASLKQGILDAWKSIPDNQLKSLVRSMEDRLFEIIRTQGNPINY | not soluble
7 | MNPKEQSSYLYEQYDDALGEQLKPITSQYVLQDLNKNSSKQKAQVVQKVDSEYVLRDLRNQADQNQNFSRDAPNRPFLTGTPVNAKEIRSQIESLDNAIVIPQIINGKVFFTTHGDADARTAVEGSVSNPNLNETNVGASKPEGVDLSKMKFTFAQLVALLGPSTCQRLEREFVKKNRLSDAEMSQLRTARESISELNLATGRSTDTLRTAQSVEPNLLSIRTANSLEPNLLSVYSARSPGVFTKKEGMLTAQSPEPNLLSVRTANSLEPNLLSVKPAKELTTISNLKAQSPGLLTAQSAEPNLLSTRTARSSSNTSLIDTESKDVQTCIEIQSPTTGVLTAQSIATPSGSCQSVFTAKEIESIRSSQDVLTAVEILTDMSRSSQDVRTALEISE | not soluble
8 | MSLDENIVKTGSNEMELVDFRIFKQGHDKVYEGIYGVNVSKVREIIKIPSLTELPGVPDYIEGIFDLRGVVIPVVNLAKWMQITEPESTMLKPRVIITEFSNILIGFIVHEAKRIRRINWKDIEPATFSTGSGALDKGKITGVTRIENDEVLLILDLESVVEDLGIYAPKTDIDFGKIEKFTGTALILDDSMTARKRVKEMMQQMGFQVVEAKDGVEGINKLEELSQIYGESLNDTLKIIVSDVEMPQMDGFHFAARIKEDPRFKDIPIVFNSSLSNEFMNEKGVQEAGGEGYLVKFNASDFFNEIAKVIKKHQSQEGHHHHHH | soluble
9 | MGSDKIHHHHHHVVLDTDLASIQESRNLVQKAKEAQLHLAHFNEQQIDKILASIVAAVEENAEGLARMACQETEYGIVEHKIAKNLFAARDVYESTKHIKTIGTISEDPDRKVIRYAAPMGVLVGITPRTNPTSTIIHNALCAIKGANAIVFSPHPFAVQCGCATASLINEAAVKAGAPDGVCSCLSMTSLQASHELMHHPDVAAIIATGGPGLVKSAYSAGKPAFGVGSGNVPVFIERSADIKQAVNDIMVSKTFDNGMICASEQAILADQPIKDEVIKELQNQGAYFLSPEEVQKVGRVVIHANGSMNNALVGQSPAVIAQRAGISIPADTALLIAPMEGYGKDYPLSHEKLTTVLGFYVVQDWKEACHLSIELLKLGGIGHSCAIHSQNEQVIREFLAKPVFRIIVNTPSALGGIGQTTGIMPSLTLGCGTWGGSSISENLGPQHLINIKHLTYGLKKVAFHKVPATQGNVSPLLPPTKATSWDIKSDDIDDVVKQVLQQLKIG | not soluble
10 | MRHNIKFKSKGTLKIRNTAQISLWKKCSDSMIADQTYLFINRVQDRRFDEESLRILELSLVAMNVKSFLEVRSRLRDFMRSESVVIFGELTGESMVAKLSVLEFFARAFALLGDMESCLAMRYEALNLRQLKSPSCLWLGVSHSEWTKFAVQSMENGFPSIAGKASENALLSLKKDSLIEPKSEDNSDILDAAEKVRRLRDSAASLTSSHSGIFIYIVSSLKFAVCNRLLTTF | soluble
11 | MTHNGGRHLLEAVTLCGSILTRYKRSNMKLDEAEVRALKELFEKYQDILVDGSPGLPTHASGPMIQPPVTNMVAPYDSPTDTIVKFVEGTINLQRPIVEVLHVMNEHLSLVLRAKNTHVFYVDPVNNLLYDPIHGVAAALDESSPIGKAIVSGERLNVAGTLYIPIISEGMPLGCVLSPCGRADYHASTMLESSLRVISTSLKNIIQAEKLNWNKEKAEAMLRMATQLARDNLEETVLASSIMNTVKSLTESARCSLFLVRGDVLEAHFEDGNVVTIPRGAGIAGYVAQTGETVNIVDAYADDRFNREVDKATGYRTKTILCMPVMYEGTIVAVAQLINKLDLTTESGLRLPRVFGKRDEELFQTFSMFAGASLRNCRINDRLLKEKKKSDVILDVVTVLSNTDIRDVDGIVRHALHGAKKLLNADRSTLFLVDKERNELCSRMADSVAGKEIRFPCGQGIAGTVAASGVGENIQDAYQDPRFNREVDKQLGYRTQTILCEPIILNGEILAVVQLVNKLDTSGEVTVFTEDDRETFRVFSLFAGISINNSHLLEFAVKAGREVMELNEHRATLFNKNVPSRAVKRVTAITKVEREAVLVCELPSFDVTDVEFDLFRARESTDKPLDVAAAIAYRLLLGSGLPQKFGCSDEVLLNFILQCRKKYRNVPYHNFYHVVDVCQTIYTFLYRGNVYEKLTELECFVLLITALVHDLDHMGLNNSFYLKTESPLGILSSASGNTSVLEVHHCNLAVEILSDPESDVFGGLEGAERTLAFRSMIDCVLATDMAKHGSALEAFLASAADQSSDEAAFHRMTMEIILKAGDISNVTKPFDISRQWAMAVTEEFYRQGDMEKERGVEVLPMFDRSKNMELAKGQIGFIDFVAAPFFQKIVDACLQGMQWTVDRIKSNRAQWERVLETRLSTSSGNNSSTR | soluble
12 | GPGSMPAPSLATRHFTFTHEVPADDVFELEENAPRRVPIACVTLQMVSFNRRCFWFHIAMTREGFSAPPPPFGACAVSFSGVSGDSAATTLVDDTALPQLGFKEAQHEVGVGAPNPQAVFADSLARRLSRRLEREFTSGVAVYVACGIIGENQSDLLGTPAGYGSEVTRRFGAEVFKHAMDLICEEGLGKATAA | not soluble
13 | MGSDKIHHHHHHMRLTHVDQLNLPFGTLSSYHPYASAPGEAVPVSFDQQRHVGAGERPGSWMAISVSMPKAISREELERAWLEVIERHGTLRTVFSTGMGGEVQQHRIDVGPGKWIDHAVAPGESINEALRAVLNRQCSPYSRPSHSLCIIDAHPRPTVIIGSDHSHVDMWSMLVIVRDLLAALDMELPVEPPLAFESHTAELLAAPPAPERIHQRWREILEAGGGKMPQFPLPLGDAISMPERVEVRDIFGVNGLAIYSARARAQQVSSLALTISVMADVTAALADLPLRAVFPVHSRFDQRWHDSVGWFISNSVIEVPDSDPHTAAQAVREAVSLGSYPLAELLEPWGGMPETPGMFAISWLDLRRLPVSIDDIGLQAQYVSASLRTDGVMLWFILDRSGAHLRCRYPDSLVARENVGRWIDAIVAQMRAEAGTVNLQAGGEQLTLRHGTRADISEIAPLLARNAADPCELVDLEHALDLLTHESSHFLAVVRNARGKIIAAMQLTIVPEFSRGGALHLHIEGPFIIPEYRTTDLDKKLRAWAVEHGRARGVKVEEVVG | not soluble
14 | TQEKRSYMEKLSDENGIISALAFDQRGALKRLMAQYQTQEPTIAQMEELKVLVAEELTPYASSMLLDPEYGLPAAKHLDKNAGLLLAYEKTGYDTTSTKRLPDCLVEWSAKRLKKQGADAVKFLLYYDVDGDEEVNQQKQAYIERIGSECKAEDIPFFLEILAYDETITDAASVEYAKVKPHKVLDAMKVFSDERFGIDVLKVEVPVNMKYVEGFGDGPIVHTQDQAANFFKQQDQATPLPYIYLSAGVSAKLFQDTLVFAKESGANFNGVLCGRATWAGSVKDYIEKGEAAARQWLRTEGFKNIDELNKVLKATATSWKE | not soluble
15 | MIQLIATPSNALVDEPVSIRATGLPPSQIVTIKATVKDENDNVFQSQAFYKTNEAGEVDLEKTPALGGDYVGVHPMGLFFSLKPKKAFHRLMKKDVMNSPLCICLDLYDSVNWLETVRIPSKASQRVQRWFVGPGVKREQIQEGRVRGALFLPPVEFRASLLASHGFAVLALAYFAYEDLPEKPQEVDLEYFEEAANFLLSHPKIQQPGIGVISTSKGAEIGLAMACYLKQVIATVCINGPTTITIFPLRYQDLVMTPIHPALERIQVHDSGALLFRYTTQYLHNKLNSQNILPVEKAQGKILFIVGENDECLDSKLHAQKAMDRLQRHGRSSGRMLAYPGAGHLIEPPYSPVCFVAWFPVLGQPMCFGGDLMAHAAAQEHSWREIQKFFRKHLLQSGSKL | not soluble
16 | MSFFFLEVLTYFDYDSSMTIKAEIKALAKEIGISKIGFTTADNFDYLEKSLRASVEEGRNSGFEHKVIEDRIYTERLLESAKTIISIGVAYPHKLPQQPQKTPYKRGKITPSSWGLDYHYVVGEKLDRLSKGIEELCRDFPLQQKAMVDTGALVDTAVAQRAGIGFIGKNGLVISKEYGSYMFLGELITNLEIEPDKPVDYDCGDCRRCLDACPTSCLIGDGSMNAKRCLSFQTQDKGMMDIEFRKKIKTVIYGCDICQICCPYNKGINNSPATEIDPELAQPELIPFLSLSNGKFKEKFGMIAGSWRGKNILQRNAIIALANAHDKTAVVKLIEIIDKNNNPIHTATAIWALGEIVKKPNDEILAFMSHLTLKDEDSRKELELIRHKWQF | not soluble
17 | MGSDKIHHHHHHMSGETFEFNIRHSGKVYPITLSTDATSADLKSKAEELTQVPSARQKYMVKGGLSGEESIKIYPLIKPGSTVMLLGTPDANLISKPAKKNNFIEDLAPEQQVQQFAQLPVGFKNMGNTCYLNATLQALYRVNDLRDMILNYNPSQGVSNSGAQDEEIHKQIVIEMKRCFENLQNKSFKSVLPIVLLNTLRKCYPQFAERDSQGGFYKQQDAEELFTQLFHSMSIVFGDKFSEDFRIQFKTTIKDTANDNDITVKENESDSKLQCHISGTTNFMRNGLLEGLNEKIEKRSDLTGANSIYSVEKKISRLPKFLTVQYVRFFWKRSTNKKSKILRKVVFPFQLDVADMLTPEYAAEKVKVRDELRKVEKEKNEKEREIKRRKFDPSSSENVMTPREQYETQVALNESEKDQWLEEYKKHFPPNLEKGENPSCVYNLIGVITHQGANSESGHYQAFIRDELDENKWYKFNDDKVSVVEKEKIESLAGGGESDSALILMYKGFGL | not soluble
